The target of assay [1] is human insulin receptor isoform A (human) (UniProt P06213). In words: radioligand binding; competition with [125I]-monoiodotyrosyl-TyrA14-insulin on intact human IM-9 lymphocytes (human IR-A).
For assay [2], the target named is human IGF-1 receptor (human) (UniProt P08069). Description: radioligand binding; competition with [125I]-monoiodotyrosyl-IGF1 on intact mouse fibroblasts transfected with human IGF-1R and with deleted mouse IGF-1R.
In assay [3] the target is His-tagged domain 11 (D11) of human IGF2R (human) (UniProt P11717). In words: radioligand binding; competition of unlabeled ligand (10^-12-10^-6 M) with [125I]-monoiodotyrosyl-Tyr2-IGF2 (43000 cpm, 0.02 nM) for D11 held in wells on iBodies; 16 h at 5 °C, HEPES binding buffer pH 7.6 with 1 % BSA; one-site fit with ligand depletion, Kd of the tracer set to 2 nM.

Drawing on article PMC7467306, this text covers Kd for 1 substance.

The term Kd denotes the equilibrium constant for the complex coming apart. A low value points to tighter binding.

Chain of UniProt P06213 (P06213 other isoform, or with tags, fused parts or gaps): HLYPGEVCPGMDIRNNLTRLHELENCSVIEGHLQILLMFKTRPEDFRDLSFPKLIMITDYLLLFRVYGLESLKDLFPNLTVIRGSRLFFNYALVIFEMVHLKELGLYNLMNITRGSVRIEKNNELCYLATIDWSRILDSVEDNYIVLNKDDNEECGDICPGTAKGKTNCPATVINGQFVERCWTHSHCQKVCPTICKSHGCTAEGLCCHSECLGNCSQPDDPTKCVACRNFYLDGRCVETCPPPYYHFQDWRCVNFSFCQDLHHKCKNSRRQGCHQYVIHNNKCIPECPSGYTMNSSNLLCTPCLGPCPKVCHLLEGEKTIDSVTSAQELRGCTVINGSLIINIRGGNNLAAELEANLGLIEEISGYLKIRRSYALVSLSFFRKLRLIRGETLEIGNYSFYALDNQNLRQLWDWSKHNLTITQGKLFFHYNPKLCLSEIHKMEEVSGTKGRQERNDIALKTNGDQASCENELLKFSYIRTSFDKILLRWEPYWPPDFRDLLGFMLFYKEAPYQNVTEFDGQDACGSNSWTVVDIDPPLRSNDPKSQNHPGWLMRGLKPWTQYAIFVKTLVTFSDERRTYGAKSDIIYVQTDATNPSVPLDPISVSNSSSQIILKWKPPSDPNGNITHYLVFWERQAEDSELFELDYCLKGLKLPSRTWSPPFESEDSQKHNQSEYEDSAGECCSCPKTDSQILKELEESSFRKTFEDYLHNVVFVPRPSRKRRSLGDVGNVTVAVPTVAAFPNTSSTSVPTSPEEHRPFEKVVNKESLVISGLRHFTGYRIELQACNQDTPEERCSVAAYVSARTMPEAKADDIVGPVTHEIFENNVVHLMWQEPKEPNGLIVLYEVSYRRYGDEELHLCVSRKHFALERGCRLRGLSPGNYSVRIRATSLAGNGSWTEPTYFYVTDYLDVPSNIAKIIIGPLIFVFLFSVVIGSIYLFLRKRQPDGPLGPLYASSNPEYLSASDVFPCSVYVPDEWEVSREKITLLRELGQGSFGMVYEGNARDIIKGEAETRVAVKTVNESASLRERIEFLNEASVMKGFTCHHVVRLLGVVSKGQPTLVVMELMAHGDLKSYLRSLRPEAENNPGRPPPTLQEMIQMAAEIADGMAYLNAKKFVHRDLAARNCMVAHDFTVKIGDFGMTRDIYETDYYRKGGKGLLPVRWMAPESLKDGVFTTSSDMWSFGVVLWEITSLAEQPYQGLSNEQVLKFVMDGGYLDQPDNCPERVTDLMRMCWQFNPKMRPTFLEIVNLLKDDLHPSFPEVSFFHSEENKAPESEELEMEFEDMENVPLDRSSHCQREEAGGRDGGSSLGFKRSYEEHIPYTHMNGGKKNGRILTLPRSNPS
Chain of UniProt P11717 (P11717 1508-1651): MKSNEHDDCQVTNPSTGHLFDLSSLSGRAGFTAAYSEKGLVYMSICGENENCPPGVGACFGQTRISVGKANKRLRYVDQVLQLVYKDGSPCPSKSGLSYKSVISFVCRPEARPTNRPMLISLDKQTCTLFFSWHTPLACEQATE

Leu19-IGF2 analog (ligand): the results for the Kd in assay [1], in assay [2] and in assay [3] were 7.3 nM, 1.1 nM and 0.28 nM, respectively.
